The nature of the series: yeast display, Sf9 membrane polyspecificity reagent, FACS + sequencing; frameworks hold sequencing errors. In short, it runs like this:
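Galactose induction of a Saccharomyces cerevisiae BJ5465 synthetic nanobody display library ran 36–48 hours. The cells were then stained for 1 hour at 4 °C with 10% biotinylated, detergent-solubilized Sf9 membrane reagent, pulled down on streptavidin microbeads and FACS-sorted into low and high (top ~1%) gates on expression and reagent-binding fluorescence. Labels for polyreactivity follow the gate of origin.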
“QVQLVESGGGLVQAGGSLRLSCAASGFIFYDYAMGWYRQAPGKERELVAAISSGGSTNYADSVKGRFTISRDNAKNTVYLQMNSLKPEDTAVYYCNVDYGVHVPPRDYWGQGTQVTVSS”: the “polyreactivity (PSR sort gate)” value is reported as “low polyreactivity”.
The entry for “QVQLVESGGGLVQAGGSLRLSCAASGFIFYDYAMGWYRQAPGKERELVASISWSSGSTYYADSVKGRFTISRDNAKNTVYLQMNSLKPEDTAVYYWAADGYPLQLYNYWGLGTQVTVSS” is “low polyreactivity”; for “QVQLVESGGGLVQAGGSLRLSCAASGFIFYDYAMGWYRQGPGKERELGAAISSTAFGTYYADSVKGRFTISRDKAKNTVYLQMNILKPEDTAVYYCAAAVSPHSEGFGEYNDWGQGTQVTVSS” it is “low polyreactivity”; for “QVQLVESGGGLVQAGGSLRLSCAASGFIFYDYDMGCYRQAPGKERELVAAITYSGGSTYYADSVKGRFTISRDNAKNTVYLQMNSLKPEDTAVYYCAAVKSRYAEAVDYYYWGQGTQVTVSS” it is “low polyreactivity”.
Take “QVQLVESGGGLVQAGGSLRLSCAASGFIFYDYDMGWYRQAPGKERELVAAISDGGSTNYADSVKGRFTISRDNAKNTVYLQMNSLKPEDTAVYYCAKDGFVYYDYFQYIEYDYWGQGTQVTVSS”: the “polyreactivity (PSR sort gate)” value is listed as “low polyreactivity”.
The value for “QVQLVESGGGLVQAGGSLRLSCAASGFIFYFNAMGWYRQAPGKERELVAAISASGGRTYYADSVKGRFTISRDNAKNTVYLQMNSLIPEDTAVYYCAADIRGYDYWGQGTQVTVSS” was “high polyreactivity”.
The value for “QVQLVESGGGLVQAGGSLRLSCAASGFIFYGYTMGWYRQAPGKERELVARISRRGGSTYYADSVKGRFTISRDNAKNTVYLQMNSLKPEDTAVYYCAAELRRLFYAYGYWGQGTQVTVSS” was “low polyreactivity”.
The entry for “QVQLVESGGGLVQAGGSLRLSCAASGFIFYKNAMGWYRQAPGKERELVAAISSRGGSTSYADSVKGLFTISRDNAKNTVYLQMNSLKQEDTAVYYCAAYPDYSYFYWGQGTQVTVSS” is “high polyreactivity”; for “QVQLVESGGGLVQAGGSLRLSCAASGFIFYKYAMGWYRQAPGKERELVAAITSSAGSTYYADSVKGRFTISRDNAKNTVYLQMNSLKPEDTAVYYCAADFHVDYVYWGQGTQVTVSS” it is “high polyreactivity”; for “QVQLVESGGGLVQAGGSLRLSCAASGFIFYLNAMGWYRQAPGKERELVAAISGRGGRTYYADSVKGRFTISRDNAKNTVYLQMNSLKPEDTAVYYCAAQYVPSRYGYWGQGTQVTVSS” it is “high polyreactivity”.
“QVQLVESGGGLVQAGGSLRLSCAASGFIFYLYTMGWYRQAPGKERELVAAIDYSGASTNYADSVKGRFTISRDNAKNTVYVQRNSQKPEDTAVYYCAVNPEVLYHSWTLDYWGQGTQVTVSS”: the “polyreactivity (PSR sort gate)” value was “low polyreactivity”.
The entry for “QVQLVESGGGLVQAGGSLRLSCAASGFIFYNYAMGLYRQAPGKERELVAAISASGGRTYYADSVKGRFTISRDNAKNTVYLQMNRLKPEDTAVYYCNARVNYKGYDYWGQGTQVTVSS” is “high polyreactivity”; for “QVQLVESGGGLVQAGGSLRLSCAASGFIFYNYAMGWYRQAPGKERELVAAITSRGGSTYYADSVKGRFTISRDNAKNTVYLQMNSLKPEDTAVYYCAAVKVGDARFVRNDYWGQGTQVTVSS” it is “high polyreactivity”.
The value for “QVQLVESGGGLVQAGGSLRLSCAASGFIFYPNAMGWYRQAPGKERELVAVITGGGSTYYADSVKGLFTISRDNAKNTVYLQMNSLKPEDPAVYYCAARTLRAGYRASGVRRDYWRQGTQVTVSS” was “high polyreactivity”.
In the case of “QVQLVESGGGLVQAGGSLRLSCAASGFIFYRNAMGWYRQAPGKERELVAAISQRGGRTYADSVKGRFTISRDNAKNTVYLQMNSLIPEDTAVYYCAADYLDSTYGYVYGWDDYWGQGTQVTVSS”, the “polyreactivity (PSR sort gate)” value is “low polyreactivity”.
For “QVQLVESGGGLVQAGGSLRLSCAASGFIFYRNTMGWSRQAPGKEREFVAAIRWRGGSTYYADSVKGRFTISRDNAKNTVYLQMNSLKPEDTAVYYCAADTRPGYSGFEYWGQGTQVTVSS”, the “polyreactivity (PSR sort gate)” value was “high polyreactivity”.
For “QVQLVESGGGLVQAGGSLRLSCAASGFIFYRNTMGWYRPAPGKEREFVAAIRWRGGSTYYADSVKGRFTISRDNAKNTVYVQMNSLKPEDTAGYYCAADTRPGYSGFEYWGQGTQVTVSS”, the “polyreactivity (PSR sort gate)” value was “high polyreactivity”.
The value for “QVQLVESGGGLVQAGGSLRLSCAASGFIFYRNTMGWYRQAPGKEREFVAAIRWRGGSTYYADSVKGRFTISRDNAKNTVYLQMNSLKPEDTAVYYCAADTRPGYSGFEYWGQGTQVTVSS” was “high polyreactivity”.
The value for “QVQLVESGGGLVQAGGSLRLSCAASGFIFYRYAMGRYRQAPGKERELVAAISWGGGSTTYYADSVKGRFTISRDNAKNTVYLQMNSLKPEDTAVYYCAAYIGKGYGSEYYYWGQGTQVTVSS” was “low polyreactivity”.
The entry for “QVQLVESGGGLVQAGGSLRLSCAASGFIFYRYAMGWYRQAPGKEREFVAVISKSGGRTYYADSVKGRFTISRDNAKNTVYLQMNSLKPEDTAVYYCNRVYRPSRYDYWGQGTQVTVSS” is “high polyreactivity”.
Regarding “QVQLVESGGGLVQAGGSLRLSCAASGFIFYRYAMGWYRQAPGKERELVAAISYSGGSTYYADSVKGRFTISRDNAKNTVYLQMNSLKPEDTAVYYCAAGSKYRYDYWGQGTQVTVSS”, the “polyreactivity (PSR sort gate)” value is reported as “high polyreactivity”.
For “QVQLVESGGGLVQAGGSLRLSCAASGFIFYRYAMGWYRQAPGKERELVAAITGSGARTYYADSVKGRFTISRDNAKNTVYLQMNSLKPEDTAVYYCNARGYRGYDYWGQGTQVTVSS”, the “polyreactivity (PSR sort gate)” value was “high polyreactivity”.
As to “QVQLVESGGGLVQAGGSLRLSCAASGFIFYRYAMGWYRQEPGKERELVASINYSGGRTYYADSVKGRFTISRDNAKNTVYLQMNSLKPEDTAVYYCNARYKSTYYYWGQGTQVTVSS”, the “polyreactivity (PSR sort gate)” value is reported as “high polyreactivity”.
The entry for “QVQLVESGGGLVQAGGSLRLSCAASGFIFYRYARGWYRQAPGKEREFVAAITRSAGGTYYADSVKGRFTISRDNAKNTVYLQMNSLKPEDTAVYYCAAVYRSGSRYYLGWYNYWGQGTQVTVSS” is “high polyreactivity”; for “QVQLVESGGGLVQAGGSLRLSCAASGFIFYRYSMGWYRQAPGIERELVAAIRSSGGSTYYADSVKGRFSISRDNAKNTVYRHMNSLKPQDTAVYYCAKCFSSVLWNGIWPYDYWGQGTQVTVSS” it is “low polyreactivity”; for “QVQLVESGGGLVQAGGSLRLSCAASGFIFYSNAMGWYRQAPGKERELVAAISRGGGSTYYADSVKGRFTISRDNAKNTVYLQMNSLKPEDTAVYYCAKRRLSPQDDYWGQGTQVTVSS” it is “high polyreactivity”.
“QVQLVESGGGLVQAGGSLRLSCAASGFIFYSNAMGWYRQAPGKERELVAAISWDAGSTYYADSVKGRFTISRDNPKNTVYLQMNSLKPEDTAVYYCATDRIVGRYIYNYWGQGTQVTVSS”: the “polyreactivity (PSR sort gate)” value is on record as “high polyreactivity”.
As to “QVQLVESGGGLVQAGGSLRLSCAASGFIFYSYAMGWYRQAPGKERELVAAITSSGGNTYYADSVKGRFTISRDNAKNTGYLQMNSLKPEDTAVYYCNRDRKRGYPYQPYDYWGQGTQVTVSS”, the “polyreactivity (PSR sort gate)” value is “high polyreactivity”.
In the case of “QVQLVESGGGLVQAGGSLRLSCAASGFIFYSYAMGWYRQAPGKERELVAAITYSGGSTYYADSVKGRFTISRDNAKNTVYLQMNSLKPEDTAVYYCADDYYHPGYIYEYWGQGTQVTVSS”, the “polyreactivity (PSR sort gate)” value is recorded as “low polyreactivity”.
The entry for “QVQLVESGGGLVQAGGSLRLSCAASGFIFYSYAMRWYRQDPGQERELVAAISTSGGSSYYADSVKGRFTMSRDNAKNTVYLQMNSLKPEDTAVYYCATLSAFYPFAYDYWGQGTQVTVSS” is “high polyreactivity”; for “QVQLVESGGGLVQAGGSLRLSCAASGFIFYSYVMGWSRQAPGKERELVAAISRSGGSTYYADSVKGRFTISRDNAKNTVYLQMNSLKPEDTAVYYCAVDGISGTSYGEGDEYWGQGTQVTVSS” it is “high polyreactivity”; for “QVQLVESGGGLVQAGGSLRLSCAASGFIFYTYAMGWYRQAPGKERELVAAISWRGGRTYYADSVKGRFTISRDNAKNTVYLQMNSLKPEDTAVYYCNAVTRSGEYDYWGQGTQVTVSS” it is “high polyreactivity”.
Consider “QVQLVESGGGLVQAGGSLRLSCAASGFIFYTYVMGWYRQAPGKERELVAAISGTGGRTYYADSVKGRFTISRDNAKNTVYLQMNSLKPEDTAVYYCAAVSRYATGGGYWGQGTQVTVSS”, for which the “polyreactivity (PSR sort gate)” value was “high polyreactivity”.
The entry for “QVQLVESGGGLVQAGGSLRLSCAASGFIFYWYVMGWYRQAPGKERELVAGISKNGTNTYYADSVKGRFTISRDNAKNTVYLQMNSLKPEDTAVYYCAARGYIRSRHYLEGYWGQGTQVTVSS” is “high polyreactivity”; for “QVQLVESGGGLVQAGGSLRLSCAASGFIFYYNAMGWYRQAPGKERELVATITSGGSTNYADSVKGRFTISRDNAKNTVYLQMNSLKPEDTAVYYCAAGHSWVYGYDYWGQGTQVTVSS” it is “low polyreactivity”.
Consider “QVQLVESGGGLVQAGGSLRLSCAASGFIFYYNARGWYRQAPGKERELVAGISWDGSTYYADSVKGRFTISRDNAKNTVYLQMNSLKPEDTAVYYCAAALLDDYFDLFIFGYWGQGTQVTVSS”, for which the “polyreactivity (PSR sort gate)” value is listed as “low polyreactivity”.
As to “QVQLVESGGGLVQAGGSLRLSCAASGFIFYYNTMGWYRQAPGKERELVASITWSGDTTYYADSVKGRFSISRDNAKNTVYLQMNSLIPEDTAVYYCAAVHYYPYRRYDYWGQGTQVTVSS”, the “polyreactivity (PSR sort gate)” value is given as “low polyreactivity”.
Take “QVQLVESGGGLVQAGGSLRLSCAASGFIFYYYAMGWYIQAPGKERELVAAIDWDGDRTYYADSVKGRFTISRDNAKNTVYLQMNSLKPEDTAVYYCAAEWPVNFDYWGQGTQVTVSS”: the “polyreactivity (PSR sort gate)” value is reported as “low polyreactivity”.
“QVQLVESGGGLVQAGGSLRLSCAASGFIFYYYAMGWYRPAPGKERELVAAISRTGGRTYYADSVKWRFTISRDNAKKTVYLQMNSLKPEDTAVYYCAADQGNRFDYWGQGTQVTVSS”: the “polyreactivity (PSR sort gate)” value is “high polyreactivity”.
As for “QVQLVESGGGLVQAGGSLRLSCAASGFIFYYYAMGWYRQAPGKERELVAAINRRGGSTYYADSVKGRFTISRDNAKNTVYLQMNSLKPEDTAVYYCAATYDGTFDYWGQGTQVTVSS”, the “polyreactivity (PSR sort gate)” value is “high polyreactivity”.
The value for “QVQLVESGGGLVQAGGSLRLSCAASGFIFYYYAMGWYRQAPGKERELVASISSSGGRTYYADSVKGRFTISRDNAKNTVYLQMNSLKPEDTAVYYCAARGPYGYDLLYYWGQGTQVTVSS” was “high polyreactivity”.

Values taken from the nanobody polyreactivity screen of Harvey et al. (2022).
